Measured values published in US20250066503A1, “CELL INJURY INDUCING THERAPEUTIC DRUG FOR USE IN CANCER THERAPY” (CHUGAI SEIYAKU KABUSHIKI KAISHA, priority 2016, published 2025).
Changes are numbered by the printed parent chain.

B1: GCH054-G1dh/none-Hi-Kn010G3/TR01L015-k0 (antibody, V domains shown)
VH: QVQLVQSGAEVKKPGASVTVSCKASGYTFTDYEMHWIRQPPGEGLEWIGAIDGETPDTAYSEKFKGRVTLTADKSTSTAYMELSSLTSEDTAVYYCTRFYSYTYWGQGTLVTVSS
VL: DIVMTQSPLSLPVTPGEPASISCRSSQSPVHSNRNTYLHWYLQKPGQSPQLLIYKVSNRFSGVPDRFSGSGSGTDFTLKISRVEAEDVGVYYCGQGTQVPYTFGQGTKLEIK
notes: one-arm
B2: GCH056-G1dh/none-Hi-Kn010G3/L0215-k0 (antibody, V domains shown)
VH: B1 VH with E62Q, K65E
VL: B1 VL with S28P, L38I, L42Q, S48A, Q50R
notes: one-arm
B3: H0610-G1dh/none-Hi-Kn010G3/L0007-k0 (antibody, V domains shown)
VH: B1 VH with T19K, E43Q, E54K, E62Q
VL: B1 VL with S25T, P29L, L42Q, S48A, Q50R
notes: one-arm
B4: GCH094-G1dh/none-Hi-Kn010G3/L0246-k0 (antibody, V domains shown)
VH: B1 VH with I37V, P40A, I48M
VL: B1 VL with L38I, H39Q, L42Q, S48A, Q50R, G94S
notes: one-arm
B5: GCH056-G1dh/none-Hi-Kn010G3/L0262-k0 (antibody, V domains shown)
VH: B1 VH with E62Q, K65E
VL: B1 VL with S28P, L42Q, S48A, Q50R, G94A
notes: one-arm
B6: GCH057-G1dh/none-Hi-Kn010G3/L0215-k0 (antibody, V domains shown)
VH: B1 VH with K65E
VL: B1 VL with S28P, L38I, L42Q, S48A, Q50R
notes: one-arm
B7: H0610-G1dh/none-Hi-Kn010G3/L0045-k0 (antibody, V domains shown)
VH: B1 VH with T19K, E43Q, E54K, E62Q
VL: B1 VL with P29L, S32Q, L42Q, S48A, Q50R
notes: one-arm
B8: GCH054-G1dh/none-Hi-Kn010G3/TR01L016-k0 (antibody, V domains shown)
VH: B1 VH
VL: B1 VL with G94Y
notes: one-arm
B9: GCH054-G1dh/none-Hi-Kn010G3/TR01L019-k0 (antibody, V domains shown)
VH: B1 VH
VL: B1 VL with R24Q, S25A, Q27E, G94Y
notes: one-arm
B10: GCH094-G1dh/none-Hi-Kn010G3/L0271-k0 (antibody, V domains shown)
VH: B1 VH with I37V, P40A, I48M
VL: B1 VL with S28P, N35Q, L42Q, S48A, Q50R
notes: one-arm
B11: H0610-G1dh/none-Hi-Kn010G3/L0038-k0 (antibody, V domains shown)
VH: B1 VH with T19K, E43Q, E54K, E62Q
VL: B1 VL with P29L, S32F, L42Q, S48A, Q50R
notes: one-arm
B12: H0610-G1dh/none-Hi-Kn010G3/L0002-k0 (antibody, V domains shown)
VH: B1 VH with T19K, E43Q, E54K, E62Q
VL: B1 VL with S25A, P29L, L42Q, S48A, Q50R
notes: one-arm
B13: H0610-G1dh/none-Hi-Kn010G3/L0016-k0 (antibody, V domains shown)
VH: B1 VH with T19K, E43Q, E54K, E62Q
VL: B1 VL with P29V, L42Q, S48A, Q50R
notes: one-arm
B14: H0610-G1dh/none-Hi-Kn010G3/L0014-k0 (antibody, V domains shown)
VH: B1 VH with T19K, E43Q, E54K, E62Q
VL: B1 VL with P29M, L42Q, S48A, Q50R
notes: one-arm
B15: H0610-G1dh/none-Hi-Kn010G3/L0006-k0 (antibody, V domains shown)
VH: B1 VH with T19K, E43Q, E54K, E62Q
VL: B1 VL with S25P, P29L, L42Q, S48A, Q50R
notes: one-arm
B16: H0610-G1dh/none-Hi-Kn010G3/L0032-k0 (antibody, V domains shown)
VH: B1 VH with T19K, E43Q, E54K, E62Q
VL: B1 VL with P29L, H31R, L42Q, S48A, Q50R
notes: one-arm
B17: GCH065-G1dh/none-Hi-Kn010G3/L0272-k0 (antibody, V domains shown)
VH: B1 VH with E54P
VL: B1 VL with S28P, P29L, N35Q, L42Q, S48A, Q50R
notes: one-arm
B18: GCH055-G1dh/none-Hi-Kn010G3/L0200-k0 (antibody, V domains shown)
VH: B1 VH with E62D
VL: B1 VL with S25P, L42Q, S48A, Q50R
notes: one-arm
B19: GCH054-G1dh/none-Hi-Kn010G3/TR01L018-k0 (antibody, V domains shown)
VH: B1 VH
VL: B1 VL with R24Q, S25A, Q27E
notes: one-arm
B20: H0610-G1dh/none-Hi-Kn010G3/L0008-k0 (antibody, V domains shown)
VH: B1 VH with T19K, E43Q, E54K, E62Q
VL: B1 VL with S25V, P29L, L42Q, S48A, Q50R
notes: one-arm
B21: H0610-G1dh/none-Hi-Kn010G3/L0013-k0 (antibody, V domains shown)
VH: B1 VH with T19K, E43Q, E54K, E62Q
VL: B1 VL with P29I, L42Q, S48A, Q50R
notes: one-arm
B22: H0610-G1dh/none-Hi-Kn010G3/L0003-k0 (antibody, V domains shown)
VH: B1 VH with T19K, E43Q, E54K, E62Q
VL: B1 VL with S25I, P29L, L42Q, S48A, Q50R
notes: one-arm
B23: H0610-G1dh/none-Hi-Kn010G3/L0043-k0 (antibody, V domains shown)
VH: B1 VH with T19K, E43Q, E54K, E62Q
VL: B1 VL with P29L, S32N, L42Q, S48A, Q50R
notes: one-arm
B24: H0610-G1dh/none-Hi-Kn010G3/L0039-k0 (antibody, V domains shown)
VH: B1 VH with T19K, E43Q, E54K, E62Q
VL: B1 VL with P29L, S32H, L42Q, S48A, Q50R
notes: one-arm
B25: H0610-G1dh/none-Hi-Kn010G3/L0012-k0 (antibody, V domains shown)
VH: B1 VH with T19K, E43Q, E54K, E62Q
VL: B1 VL with P29F, L42Q, S48A, Q50R
notes: one-arm
B26: H0610-G1dh/none-Hi-Kn010G3/L0046-k0 (antibody, V domains shown)
VH: B1 VH with T19K, E43Q, E54K, E62Q
VL: B1 VL with P29L, S32V, L42Q, S48A, Q50R
notes: one-arm
B27: H0610-G1dh/none-Hi-Kn010G3/L0042-k0 (antibody, V domains shown)
VH: B1 VH with T19K, E43Q, E54K, E62Q
VL: B1 VL with P29L, S32M, L42Q, S48A, Q50R
notes: one-arm
B28: GCH094-G1dh/none-Hi-Kn010G3/L0270-k0 (antibody, V domains shown)
VH: B1 VH with I37V, P40A, I48M
VL: B1 VL with P29L, N35Q, L42Q, S48A, Q50R
notes: one-arm
B29: H0610-G1dh/none-Hi-Kn010G3/L0041-k0 (antibody, V domains shown)
VH: B1 VH with T19K, E43Q, E54K, E62Q
VL: B1 VL with P29L, S32L, L42Q, S48A, Q50R
notes: one-arm
B30: H0610-G1dh/none-Hi-Kn010G3/L0044-k0 (antibody, V domains shown)
VH: B1 VH with T19K, E43Q, E54K, E62Q
VL: B1 VL with P29L, S32P, L42Q, S48A, Q50R
notes: one-arm
B31: GCH065-G1dh/none-Hi-Kn010G3/L0262-k0 (antibody, V domains shown)
VH: B1 VH with E54P
VL: B1 VL with S28P, L42Q, S48A, Q50R, G94A
notes: one-arm
B32: H0610-G1dh/none-Hi-Kn010G3/L0009-k0 (antibody, V domains shown)
VH: B1 VH with T19K, E43Q, E54K, E62Q
VL: B1 VL with S26P, P29L, L42Q, S48A, Q50R
notes: one-arm
B33: GCH060-G1dh/none-Hi-Kn010G3/L0200-k0 (antibody, V domains shown)
VH: B1 VH with T30E, E62Q, K65E, S88E
VL: B1 VL with S25P, L42Q, S48A, Q50R
notes: one-arm
B34: GCH094-G1dh/none-Hi-Kn010G3/L0272-k0 (antibody, V domains shown)
VH: B1 VH with I37V, P40A, I48M
VL: B1 VL with S28P, P29L, N35Q, L42Q, S48A, Q50R
notes: one-arm
B35: GCH055-G1dh/none-Hi-Kn010G3/L0215-k0 (antibody, V domains shown)
VH: B1 VH with E62D
VL: B1 VL with S28P, L38I, L42Q, S48A, Q50R
notes: one-arm

What follows are binders tested against T1, human GPC3 (human, UniProt P51654 25-563) (assay: SPR).
T1 construct: range 25-563; soluble analyte; also called soluble human GPC3; glypican 3
T1 sequence (P51654 25-563 limits assumed): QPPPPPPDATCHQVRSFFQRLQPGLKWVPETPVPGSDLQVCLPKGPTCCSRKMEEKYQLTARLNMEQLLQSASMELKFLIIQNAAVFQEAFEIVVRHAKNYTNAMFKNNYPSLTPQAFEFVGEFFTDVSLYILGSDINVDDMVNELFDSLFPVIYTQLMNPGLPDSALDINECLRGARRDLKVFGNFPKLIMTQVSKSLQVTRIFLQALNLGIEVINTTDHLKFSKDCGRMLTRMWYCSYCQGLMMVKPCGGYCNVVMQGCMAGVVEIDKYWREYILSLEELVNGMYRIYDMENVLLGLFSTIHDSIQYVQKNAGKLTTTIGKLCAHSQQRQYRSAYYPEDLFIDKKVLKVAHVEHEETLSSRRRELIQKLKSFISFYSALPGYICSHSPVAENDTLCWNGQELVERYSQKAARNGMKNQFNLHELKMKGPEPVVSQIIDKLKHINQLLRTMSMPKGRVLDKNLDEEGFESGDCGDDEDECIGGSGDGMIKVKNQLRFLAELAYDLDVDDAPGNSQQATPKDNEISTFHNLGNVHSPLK

Kd	Binder
2.45 nM	B1
1.59 nM	B2
4.39 nM	B3
0.00412 nM	B4
0.0119 nM	B5
1.83 nM	B6
4.66 nM	B7
0.763 nM	B8
0.871 nM	B9
0.692 nM	B10
2.75 nM	B11
4.43 nM	B12
4.44 nM	B13
1.82 nM	B14
3.04 nM	B15
3.72 nM	B16
0.393 nM	B17
1.13 nM	B18

Kd	Binder
2.59 nM	B19
3.3 nM	B20
3.35 nM	B21
4.01 nM	B22
5.14 nM	B23
3.41 nM	B24
1.55 nM	B25
5.45 nM	B26
4.27 nM	B27
3.6 nM	B28
4.85 nM	B29
4.57 nM	B30
0.0118 nM	B31
2.99 nM	B32
1.34 nM	B33
2.1 nM	B34
1.52 nM	B35
